Experimental data taken from patent US20230312724A1 (KADMON, published 2023).

Columns and labels:
[1] = target: T1, IgV domain of human B7-H4-Fc (human); experiment: ELISA, coated hB7-H4 IgV domain
T1 construct: also called hB7-H4 IgV domain
Procedure, shortened: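 Direct binding ELISA: immobilized B7-H4-Fc or his-tagged antigen (~1-2 μg/ml, overnight, 4° C), antibody dilution series 1-1.5 h at RT. Readout OD450 after HRP anti-hFab and TMB; EC50 calculated.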

[2] = target: T2, human B7-H4-his (human, UniProt Q7Z7D3 25-259); experiment: ELISA, coated hB7-H4-his
T2 construct: also called hB7-H4-his; hB7-H4 his; not shown: his tag
T2 sequence: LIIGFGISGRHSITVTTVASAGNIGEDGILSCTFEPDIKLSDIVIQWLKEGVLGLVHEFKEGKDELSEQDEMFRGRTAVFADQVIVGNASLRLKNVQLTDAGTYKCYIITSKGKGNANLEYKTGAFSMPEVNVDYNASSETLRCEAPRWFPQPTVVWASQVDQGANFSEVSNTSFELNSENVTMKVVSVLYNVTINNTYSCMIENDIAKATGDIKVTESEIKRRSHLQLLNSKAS
Experimental: (§1) About 1-2 μg/ml of human or mouse B7-H4-Fc (or his-tagged) was immobilized on ELISA plates (Immuno 2HB, Thermo scientific, cat #3455) at 4° C. overnight. After blocking the plates with 3% PBS+milk, serial diluted antibodies were added to the blocked plates and incubated at RT for 1-1.5 h. After washing the plates with PBS-T (0.05%), horse radish peroxidase (HRP)-conjugated antibody targeting the hFab was added to the plate. Signals were developed by adding 3,3′,5,5′-Tetramethylbenzidine (TMB (followed 1N of H₂SO₄ to stop the reaction. The OD at 450 nm was read by ELISA plate reader (Infinite M1000 from TECAN). GraphPad from Prism was used to plot OD450 vs. antibody concentration curve and to calculate the EC50 values.

[3] = target: T3, mouse B7-H4-Fc (mouse; human); experiment: ELISA, coated mB7-H4-Fc
T3 construct: also called mB7-H4-Fc; mB7-H4-hFc
T3 sequence (chain, as listed by the source): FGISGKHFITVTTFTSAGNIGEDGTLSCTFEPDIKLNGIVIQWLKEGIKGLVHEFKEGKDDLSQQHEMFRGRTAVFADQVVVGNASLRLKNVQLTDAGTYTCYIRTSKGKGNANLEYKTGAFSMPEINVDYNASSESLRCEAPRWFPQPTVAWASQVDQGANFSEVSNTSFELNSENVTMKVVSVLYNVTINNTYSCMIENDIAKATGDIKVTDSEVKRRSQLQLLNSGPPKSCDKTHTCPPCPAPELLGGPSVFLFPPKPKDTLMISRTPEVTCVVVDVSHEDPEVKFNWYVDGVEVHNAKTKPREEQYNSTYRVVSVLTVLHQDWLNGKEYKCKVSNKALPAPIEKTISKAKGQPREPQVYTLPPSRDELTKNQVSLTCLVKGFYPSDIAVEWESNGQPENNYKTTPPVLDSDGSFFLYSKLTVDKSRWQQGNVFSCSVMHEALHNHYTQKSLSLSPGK
Experimental: ELISA experiments were performed to determine binding to hB7-H4-Fc (FIG. 5A), hB7-H4-his (FIG. 5B), mB7-H4-Fc domain (FIG. 5C), hB7-H4 IgV domain (FIG. 5D), and hB7-H4 IgC domain (FIG. 5E). Flow cytrometry experiments were performed to determine binding to CHO cells expressing hB7-H4 (FIG. 5F) or mB7-H4 (FIG. 5G). […] A cross-reactive IgV binding antibody and an IgC binding antibody were used as controls.
as §1

T1 sequence (chain, as listed by the source): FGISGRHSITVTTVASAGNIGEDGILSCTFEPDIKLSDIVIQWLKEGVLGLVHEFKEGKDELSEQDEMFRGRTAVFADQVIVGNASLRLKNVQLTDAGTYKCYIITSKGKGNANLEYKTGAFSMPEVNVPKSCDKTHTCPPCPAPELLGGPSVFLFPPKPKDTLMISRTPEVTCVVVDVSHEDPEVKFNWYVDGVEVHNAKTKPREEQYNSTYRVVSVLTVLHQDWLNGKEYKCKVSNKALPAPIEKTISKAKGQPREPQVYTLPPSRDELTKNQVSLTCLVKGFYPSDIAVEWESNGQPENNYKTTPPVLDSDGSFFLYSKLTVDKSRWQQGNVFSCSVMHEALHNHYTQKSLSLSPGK

EC50 (read off the curve) [1]: ~200 pM
EC50 (read off the curve) [2]: ~200 pM
EC50 (read off the curve) [3]: ~100 pM
B1: Control antibody 1 (antibody 20502 described in US20190085080A1) (antibody, V domains shown)
VH: QLQLQESGPGLVKPSETLSLTCTVSGGSIKSGSYYWGWIRQPPGKGLEWIGNIYYSGSTYYNPSLRSRVTISVDTSKNQFSLKLSSVTAADTAVYYCAREGSYPNQFDPWGQGTLVTVSS
VL: EIVMTQSPATLSVSPGERATLSCRASQSVSSNLAWYQQKPGQAPRLLIYGASTRATGIPARFSGSGSGTEFTLTISSLQSEDFAVYYCQQYHSFPFTFGGGTKVEIK
notes: also called (+) control Ab1; (+) Ab1
